Data: US20150307625A1 (Bayer, published 2015)
One block for each molecule: values may come before it.

Experiments:
[1] = target: activated Factor X; test: direct ELISA, FXa coated at 10 ug/ml, positive control antibody specific for the antigen, concentration not given
[2] = target: T1, dog Protein C (zymogen) (dog, UniProt Q28278 43-456); test: direct ELISA, dPC coated at 10 ug/ml, positive control antibody specific for the antigen, concentration not given
T1 construct: mature; also called dog PC
T1 sequence (looked up): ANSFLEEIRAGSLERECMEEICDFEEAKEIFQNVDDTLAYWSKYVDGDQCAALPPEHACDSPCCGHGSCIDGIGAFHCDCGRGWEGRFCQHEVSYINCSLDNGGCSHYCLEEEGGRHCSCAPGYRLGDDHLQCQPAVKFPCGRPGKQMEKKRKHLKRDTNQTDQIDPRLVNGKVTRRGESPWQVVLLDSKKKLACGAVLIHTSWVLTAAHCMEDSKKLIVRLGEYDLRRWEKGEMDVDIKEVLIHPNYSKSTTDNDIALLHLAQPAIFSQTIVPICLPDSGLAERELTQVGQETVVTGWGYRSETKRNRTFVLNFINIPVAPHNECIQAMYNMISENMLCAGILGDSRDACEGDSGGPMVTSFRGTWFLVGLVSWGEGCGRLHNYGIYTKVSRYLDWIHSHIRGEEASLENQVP

[3] = target: activated Factor VII; test: direct ELISA, FVIIa coated at 10 ug/ml, positive control antibody specific for the antigen, concentration not given
Sequence of activated Factor VII (P08709 61-212, chain 1 of 2): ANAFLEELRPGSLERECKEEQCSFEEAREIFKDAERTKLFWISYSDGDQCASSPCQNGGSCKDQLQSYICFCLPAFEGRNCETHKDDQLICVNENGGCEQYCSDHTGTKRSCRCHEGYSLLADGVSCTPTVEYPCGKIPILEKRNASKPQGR
Sequence of activated Factor VII (P08709 213-466, chain 2 of 2): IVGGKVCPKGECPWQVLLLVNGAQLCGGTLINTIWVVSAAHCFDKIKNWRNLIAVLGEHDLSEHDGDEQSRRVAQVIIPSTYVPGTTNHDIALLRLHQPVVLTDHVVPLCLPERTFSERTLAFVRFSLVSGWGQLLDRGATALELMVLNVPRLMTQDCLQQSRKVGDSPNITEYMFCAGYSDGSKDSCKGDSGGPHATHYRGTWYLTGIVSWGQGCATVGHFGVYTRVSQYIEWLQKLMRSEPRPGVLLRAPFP

[4] = target: T2, mouse Protein C (zymogen) (mouse, UniProt P33587 42-460); test: direct ELISA, mPC coated at 10 ug/ml, positive control antibody specific for the antigen, concentration not given
T2 construct: mature; also called mouse PC
T2 sequence (looked up): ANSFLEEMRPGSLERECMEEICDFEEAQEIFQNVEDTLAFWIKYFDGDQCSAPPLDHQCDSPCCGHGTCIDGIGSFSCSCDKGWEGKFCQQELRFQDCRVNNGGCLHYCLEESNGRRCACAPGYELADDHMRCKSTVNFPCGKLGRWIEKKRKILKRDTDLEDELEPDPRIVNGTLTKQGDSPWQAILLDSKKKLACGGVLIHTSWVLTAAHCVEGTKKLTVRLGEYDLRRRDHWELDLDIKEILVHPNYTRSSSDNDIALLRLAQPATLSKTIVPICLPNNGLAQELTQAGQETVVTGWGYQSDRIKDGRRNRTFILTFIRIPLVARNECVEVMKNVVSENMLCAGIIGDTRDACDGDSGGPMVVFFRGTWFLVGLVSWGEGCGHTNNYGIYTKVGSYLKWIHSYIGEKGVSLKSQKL

[5] = target: activated Factor II (thrombin) (Homo sapiens (Human)) (UniProt P00734); test: direct ELISA, FIIa coated at 10 ug/ml, positive control antibody specific for the antigen, concentration not given
[6] = target: activated Factor IX; test: direct ELISA, FIXa coated at 5 ug/ml, positive control antibody specific for the antigen, concentration not given
[7] = target: T3, human activated Protein C (human, UniProt P04070 43-461); test: direct ELISA, hAPC coated at 1 ug/ml, positive control antibody specific for the antigen, concentration not given
[8] = target: T3, human activated Protein C; test: cell-based or functional assay
[9] = target: T4, dog activated Protein C (dog, UniProt Q28278 43-456); test: cell-based or functional assay
T4 sequence (looked up): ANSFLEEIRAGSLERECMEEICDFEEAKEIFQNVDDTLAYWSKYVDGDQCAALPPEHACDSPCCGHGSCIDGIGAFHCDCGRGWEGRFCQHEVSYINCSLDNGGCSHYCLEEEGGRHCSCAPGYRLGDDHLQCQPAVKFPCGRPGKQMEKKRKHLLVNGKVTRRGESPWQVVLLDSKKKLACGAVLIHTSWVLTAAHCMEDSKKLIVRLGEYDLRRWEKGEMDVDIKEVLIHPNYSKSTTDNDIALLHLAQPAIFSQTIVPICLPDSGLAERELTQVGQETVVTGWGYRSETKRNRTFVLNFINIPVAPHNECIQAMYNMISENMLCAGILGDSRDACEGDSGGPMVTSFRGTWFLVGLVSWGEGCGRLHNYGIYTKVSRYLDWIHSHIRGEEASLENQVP

[10] = target: T3, human activated Protein C; test: cell-based or functional assay; remark: listed apart in the source
[11] = target: rabbit activated Protein C (rabbit) (UniProt Q28661); test: direct ELISA, aPC coated, hIgG1
[12] = target: mouse activated Protein C (mouse) (UniProt P33587); test: direct ELISA, aPC coated, hIgG1
[13] = target: T3, human activated Protein C; test: cell-based or functional assay; remark: listed apart in the source
[14] = target: T4, dog activated Protein C; test: direct ELISA, aPC coated, hIgG1
[15] = target: T3, human activated Protein C; test: direct ELISA, aPC coated, hIgG1
[16] = target: T4, dog activated Protein C; test: ELISA, hIgG1
[17] = target: T3, human activated Protein C; test: ELISA, hIgG1
[18] = target: T1, dog Protein C (zymogen); test: direct ELISA, antigen coated
[19] = target: mouse activated Protein C (mouse) (UniProt P33587); test: direct ELISA, hIgG1
[20] = target: rabbit activated Protein C (rabbit) (UniProt Q28661); test: ELISA, hIgG1
[21] = target: rabbit activated Protein C (rabbit) (UniProt Q28661); test: cell-based or functional assay
[22] = target: T4, dog activated Protein C; test: Biacore, Fab
[23] = target: T3, human activated Protein C; test: Biacore, Fab
[24] = target: T4, dog activated Protein C; test: ELISA and Biacore, as the sentence says
[25] = target: T1, dog Protein C (zymogen); test: direct ELISA, dPC coated at 10 ug/ml, Fab at 20 nM, anti-human Fab-HRP, AmplexRed (RFU)
Experimental: (§1) To determine the binding selectivity of these fabs, their binding activities to the proenzyme human PC, to thrombin (FIIa), and to the activated Factor II (FIIa, thrombin), Factor VII (FVIIa), Factor IX (FIXa), and Factor X (FXa) were also assessed by ELISA. Briefly, an ELISA plate was coated with human aPC at 1 ug/ml, mouse PC at 10 ug/ml, dog PC at 10 ug/ml, other coagulation factors (FIIa, FVIIa, FIXa, FXa) at 5-10 ug/ml. Anti-aPC Fabs were added to the wells at 20 nM (1 ug/ml). Bound Fabs were detected by the secondary antibody (anti-human Fab-HRP) followed by HRP substrate AmplexRed.

[26] = target: T4, dog activated Protein C; test: direct ELISA, antigen coated, Fab
[27] = target: T3, human activated Protein C; test: direct ELISA, antigen coated, Fab
[28] = target: T4, dog activated Protein C; test: direct ELISA, antigen coated at 1 ug/ml, IgG at 20 nM, anti-human IgG-HRP, AmplexRed (RFU)
[29] = target: T3, human activated Protein C; test: ELISA titration, IgG against Fab
[30] = target: T2, mouse Protein C (zymogen); test: direct ELISA, mPC coated at 10 ug/ml, Fab at 20 nM, anti-human Fab-HRP, AmplexRed (RFU)
Experimental: as §1

[31] = target: T4, dog activated Protein C; test: direct ELISA, antigen coated at 100 ng/well, Fab at 20 nM (1 ug/ml), anti-human Fab-HRP, AmplexRed (RFU)
Experimental: (§2) FIG. 3 depicts a graph characterizing anti-APC Fabs by direct ELISA. An ELISA plate was coated with human PC (hPC), human aPC (hAPC), dog aPC (dAPC), mouse aPC (mAPC) at 100 ng per well. Purified Fabs designate on the X-axis were added to the plate at 20 nM (1 ug/ml). Bound Fab was detected by the secondary antibody (anti-human Fab-HRP) followed by HRP substrate AmplexRed. The purified Fabs preferentially bind to human aPC and, with the exception of Fab R41C17, show little to no binding to human PC.
(§3) Antigens were coated directly on ELISA plates. Coating antigens included human PC (plasma-derived), human aPC (recombinant), dog aPC (plasma-derived), and mouse aPC (recombinant) at 100 ng/well in PBS/Ca buffer. After blocking the plate with 5% milk/PBS and washing the plate with PBS-Tween20, soluble Fabs (1 ug/ml, 20 nM) were added to the plate and incubated for 1 h at RT with shaking. Fab binding was detected with anti-human Fab (lambda) antibody-HRP and Amplex red as substrate. […] In contrast, R41C17 binds to both human APC and human PC. Also shown in FIG. 3 is cross-species reactivity of Fabs by ELISA.

[32] = target: T5, human Protein C (zymogen) (human, UniProt P04070 43-461); test: as above
T5 construct: also called human PC; hPC
Experimental: as §2, §3

[33] = target: T3, human activated Protein C; test: ELISA titration

Sequence of activated Factor X (P00742 41-179, chain 1 of 2): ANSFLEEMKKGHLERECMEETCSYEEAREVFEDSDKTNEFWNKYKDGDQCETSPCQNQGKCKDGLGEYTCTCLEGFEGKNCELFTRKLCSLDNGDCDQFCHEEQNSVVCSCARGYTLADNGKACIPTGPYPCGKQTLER
Sequence of activated Factor X (P00742 235-488, chain 2 of 2): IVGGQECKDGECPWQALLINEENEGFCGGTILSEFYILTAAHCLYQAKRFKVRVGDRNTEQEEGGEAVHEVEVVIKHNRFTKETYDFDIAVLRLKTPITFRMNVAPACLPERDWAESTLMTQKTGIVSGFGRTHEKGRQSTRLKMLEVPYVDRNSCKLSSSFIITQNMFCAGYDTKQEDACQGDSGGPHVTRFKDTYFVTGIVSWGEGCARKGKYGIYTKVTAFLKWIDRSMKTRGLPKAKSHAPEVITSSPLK

Molecule: control Ab (specific for each antigen) (antibody)
RFU [1]: 6460 RFU
RFU [2]: 476 RFU
RFU [3]: 10300 RFU
RFU [4]: 331 RFU
RFU [5]: 6050 RFU
RFU [6]: 7370 RFU
RFU [7]: 11700 RFU

B1: T46J23-hIgG1 (antibody, V domains shown)
VH: EVQLLESGGGLVQPGGSLRLSCAASGFTFGNHWMTWVRQAPGKGLEWVSGVSWNGSRTHYADSVKGRFTISRDNSKNTLYLQMNSLRAEDTAVYYCALTGRSGWMRFPNWFDPWGQGTLVTVTS
VL: LTQPPSASGTPGQRVTISCTGTSSNIGAGYDVHWYQQLPGTAPKLLIYDNNNRPSGVPDRFSGSKSGTSASLAISGLRSEDEADYYCAAWDDSLNGVVFGGGTKLTVLG
notes: also called T46J23-IgG
IC50 (read off the curve), amidolytic activity of human aPC [b] [8]: ~8 nM
Anti-aPC IC50 (nM), Amidolytic activity [9]: 625 nM
Anti-aPC IC50 (nM), Amidolytic activity [10]: 18 nM
EC50 [11]: 7 nM
EC50 [12]: 4.6 nM
aPTT, inhibition of aPC activity at 1 ug/ml IgG (1:1 molar ratio) [13]: ~50%
EC50 [14]: 1.68 nM
EC50 [15]: 2.18 nM
EC50 [16]: 1.7 nM
EC50 [17]: 2.2 nM
binding result [18]: no binding
EC50 [19]: 6 nM
EC50 [20]: 1.7 nM
Anti-aPC IC50 (nM), Amidolytic activity [21]: 17 nM

B2: T46J23 Fab (Fab, V domains shown)
VH: B1 VH
VL: B1 VL
notes: Human Fab (lambda), expressed in E. coli
Kd [22]: 21 nM
Kd [23]: 4.1 nM
Kd [24]: 22 nM
binding result [25]: no binding (tested: 20 nM)
EC50 [26]: 16.6 nM
EC50 [27]: 6.7 nM

More lines, now with the values ahead:

binding result [28]: no binding (tested: 20 nM)
aPTT, inhibition of aPC activity at 163-fold molar excess [13]: ~80%
EC50 [15]: 1.76 nM
fold increase of binding affinity against the corresponding Fab [29]: ~50 fold
B3: R41E3 hIgG1 (antibody, V domains shown)
VH: EVQLLESGGGLVQPGGSLRLSCAASGFTFNNYAMTWVRQAPGKGLEWVSGVSWNGSRTHYADSVKGRFTISRDNSKNTLYLQMNSLRAEDTAVYYCARADSSSAGRWAGSLDYWGQGTLVTVTS
VL: LTQPPSASGTPGQRVTISCSGSSSNIGNNAVNWYQQLPGTAPKLLIYSNNQRPSGVPDRFSGSKSGTSASLAISGLRSEDEADYYCSSYTSSSTHVVFGGGTKLTVLG
notes: also called R41E3-IgG

binding result [30]: no binding (tested: 20 nM)
binding result [31]: no binding (tested: 20 nM)
binding result [32]: no binding (tested: 20 nM)
Kd [23]: 11 nM
binding result [25]: no binding (tested: 20 nM)
EC50 [33]: 104 nM
EC50 [27]: 10.4 nM
B4: R41E3 Fab (Fab, V domains shown)
VH: B3 VH
VL: B3 VL
notes: as for B2
